Reference: paper PMC12858062 (2026)

biological target: Stabilised Pfs48/45 D3 (D3.mAgE1), PNGase F-deglycosylated, with C-terminal hexa-histidine tag and AviTag (P. falciparum); test: BLI

| Binder | koff |
| --- | --- |
| Anti-Pfs48/45 monoclonal antibody TB31F (humanised version of 85RF45.1) (antibody, V domains shown) VH: EVQLVQSGGGLVQPGGSLRLSCAASGFTFNNYWMSWVRQAPGKGLEWVSSISNIGGTIYYPDSVKGRFTISRDNSKNTLYLQMNSLRAEDTAVYYCTRDLRMSDYFDYWGQGTMVTVSS VL: NFMLTQPHSVSESPGKTVTISCTRSTGNIGSNYVSWYQQRPGSSPTTVIYRDDQRPSGVPDRFSGSIDRSSNSASLTISGLKTEDEADYYCHSYSTGMYIFGGGTKLTVL | 0.00239 s⁻¹ |
| A4-Fc (anti-Pfs48/45 nanobody A4 fused to hinge and Fc of human IgG1) (Fc fusion) QVQLQESGGGLVQPGGSLRLSCAASGFTFSSYWMYWVRETPGKGLEWVSVINPGGRITIYTDSVKGRFTVSRDNAKNTVYLQMNSLKPEDTAVYFCAADLEYRAQLYAYWGQGTQVTVSS | 0.00851 s⁻¹ |
| B2-Fc (anti-Pfs48/45 nanobody B2 fused to hinge and Fc of human IgG1) (Fc fusion) QVQLQESGGGLVQAGGSLRLSCAASGRTFSKYAMAWFRQAPGKEREFVAAISGAGGATVHAAPVKGRFTISRDNAKNMGYLQMNSLKPEDTAVYYCAQTGSTGWPAGRTYTYDYWGQGTQVTVSS | 0.00476 s⁻¹ |
| C3-Fc (anti-Pfs48/45 nanobody C3 fused to hinge and Fc of human IgG1) (Fc fusion) QVQLQESGGGSVQPGGSLRLSCAASGFTFSSYWMYWVRQAPEKGLEWVSVINPGGRITIYTDSVKGRFAVSRDNAKNTVYLQLNSLKPEDTAVYYCAASRTYSNSYSPSDYDYWGQGTQVTVSS | 0.0106 s⁻¹ |
